The source of these data is patent US20200199244A1 (published 2020).

The chains are these.
B1: BMS3h-56-7 (other)
VH: EVQLLESGGGLVQPGGSLRLSCAASGFTFRDYEMWWVRQAPGKGLERVSAINPQGTRTYYADSVKGRFTISRDNSKNTLYLQMNSLRAEDTSVYHCAKPPFIFGDWGPGTLVTVSS
notes: dAb, single VH
B2: BMS3h-56-20 (other)
VH: EVQLLESGGGLVQPGGSLRLSCAASGFTFRDYEMWWVRQAPGKGLERVSAINPQGTRTYYADSVKGRFTISRDNSKNTLYLQMNSLRAEDTAVYYCTKLPFTFEDWGQGTLVTVSS
notes: dAb, single VH
B3: BMS3h-56-18 (other)
VH: EVQLLESGGGLVQPGGSLRLSCAASGFTFRDYEMWWVRQAPGKVLERVSAINPQGTRTYYADSVKGRFTISRDNSKNMLYLQMNSLRAEDTAVYYCAKLPFTFEDWGQGTLVTVSS
notes: dAb, single VH
B4: BMS3h-56-26 (other)
VH: EVQLLESGGGLVQPGGSLRLSCAASGFTFRDYEMWWVRRAPGKGLERVSAINPQGTRTYYADSVMGRFTISRDNSKNTLYLQMNSLRAEDTAVYYCAKLPFMFDDRGQGTLVTVSS
notes: dAb, single VH
B5: BMS3h-56-17 (other)
VH: EVQLLESGGGLVQPGGSLRLSCAASGFSFRDYEMWWYRQAPGKGLERVSAINPQGTRTYYADSVKGRFTISRDNSKNTLYLQMNSLRAEDTAVYYCAKLPFTFEDWGQGTLVTVSS
notes: dAb, single VH
B6: BMS3h-56-25 (other)
VH: EVQLLESGGGLVQPGGSLRLSCAASGFTFRDYEMWWVRRAPGKGLERVSAINPQGTRTYYADSVMGRFTISRDNSKNTLYLQMNSLRAEDTAVYYCAKLPFTFDDWGQGTLVTVSS
notes: dAb, single VH
B7: BMS3h-56-23 (other)
VH: EVQLLESGGGLVQPGGSLRLSCAASGFTFRDYEMWWVRQAPGKGLERVSAINPQGTRTYYADSVMGRFTISRDNSKNTLYLQMNSLRAEDTAVYYCAKEPYSFDSWGQGTLVTVSS
notes: dAb, single VH
B8: BMS3h-56-28 (other)
VH: EVQLLESGGGLVQPGGSLRLSCAASGFTFAGYELWWVRQAPGKGLERVSAINPQGTRTYYADSVMGRFTISRDNSKNTLYLQMNSLRAEDTAVYYCAKLPFTFDDWGQGTLVTVSS
notes: dAb, single VH
B9: BMS3h-56-19 (other)
VH: EVQLLESGGGLVQPGGSLRLSCAASGFTFRDYEMWWVRQAPGKGLERVSAINPQGTRTYYADSVKGRFTISRDNSKNTLYLQMNSLRAEDTAVYHCAKLPFTFEDWGQGTLVTVSS
notes: dAb, single VH
B10: BMS3h-56-8 (other)
VH: EVQLLESGGGLVQPGGSRRLSCAASGFTFRDYEMWWVRQAPGKGLERVSAINPQGTRTYYADSVKGRFTISRDNSKNTLYLQMNSLRAEDTAVYYCAKLPFTFEDWGQGTLVTVSS
notes: dAb, single VH
B11: BMS3h-56-21 (other)
VH: EVQLLESGGGLVQPGGSLRLSCAASGFTFRDYEMWWVRQAPGKGLERVSAINPQGTRTYYADSVKGRFTISRDNSKNTLYLQMNSLRAEDTAVYYCLKLPFTFEDWGQGTLVTVSS
notes: dAb, single VH
B12: BMS3h-56-29 (other)
VH: EVQLLESGGGLVQPGGSLRLSCAASGFTFAGYELWWVRQAPGKGLERVSAINPQGTRTYYADSVMGRFTISRDNSKNTLYLQMNSLRAEDTAVYYCAKLPFMFDDRGQGTLVTVSS
notes: dAb, single VH
B13: BMS3h-56-22 (other)
VH: EVQLLESGGGLVQPGGSLRLSCAASGFTFRDYEMWWVRQAPGKGLERVSAINPQGTRTYYADSVKGRFTISRDNSKNTLYLQMNSLRADDTAVYHCTKLPFIFEYWGQGTLVTVSS
notes: dAb, single VH
B14: BMS3h-56-24 (other)
VH: EVQLLESGGGLVQPGGSLRLSCAASGFTFRDYEMWWVRQAPGKGLERVSAINPQGTRTYYADSVMGRFTISRDNSKNTLYLQMNSLRAEDTAVYHCAKEPYSYDYWGQGTLVTVSS
notes: dAb, single VH
B15: BMS3h-56-30 (other)
VH: EVQLLESGGGLVQPGGSLRLSCAASGFTFAGYEMWWFRQAPGKGLERVSAINPQGTRTYYADSVMGRFTISRDNSKNTLYLQMNSLRAEDTAVYYCAKLPFTFDDWGQGTLVTVSS
notes: dAb, single VH
B16: BMS3h-56-16 (other)
VH: EVQLLESGGGLVQPGGSLRLSCAASGFTFRDYEMWWVRQAPGKGLERVSAINPQGTRTYYADSVMGRFTISRDNSKNTLYLQMNSLRAEDTAVYYCAKLPFTFEDWGQGTLVTVSS
notes: dAb, single VH
B17: BMS3h-56-31 (other)
VH: EVQLLESGGGLVQPGGSLRLSCAASGFTFAGYEMWWFRQAPGKGLERVSAINPQGTRTYYADSVMGRFTISRDNSKNTLYLQMNSLRAEDTAVYYCAKLPFMFDDRGQGTLVTVSS
notes: dAb, single VH
B18: BMS3h-217-1 (other)
VL: NIQMTQSPSSLSASVGDRVTITCRASHFIGTLLTWYQHKPGKAPKLLITYGSLLQSGVPSRFSGSGSGTDFTLTISSLQPEDFATYYCGQGVLWPATFGQGTKVEIKR
notes: dAb, single VK
B19: BMS3h-217-16 (other)
VL: DIQMTQSPSSLSASVGDRVTITCRASHFIGTLLSWYQQKPRKAPKLLITYGSLLQSGVPSRFSGSGSGTDFTLTISSLQPEDFATYYCGQGVLWPPTFGQGTKVEIKR
notes: dAb, single VK
B20: BMS3h-217-3 (other)
VL: DIQMTQSPSSLTASVGDRVTITCRASHFIGTLLSWYQQKPGKAPKLLVTYGSLLQSGVPSRFSGSGSGTDFTLTISNLQPEDFATYYCGQGVLWPPTFGQGTKVENIR
notes: dAb, single VK
B21: BMS3h-217-23 (other)
VL: DIQMTQSPSSLSASVGDRVTITCRASHFIGSLLSWYQVKPGKAPKLLITYGSLLQSGVPSRFSGSGSGTDFTLTISSLQPEDFATYYCGQGVLWPATFGQGTTVEIKR
notes: dAb, single VK
B22: BMS3h-217-8 (other)
VL: DIQMTQSPSSLSASVGDRVTITCRASHFIGTLLSWYQHKPGKAPKLLITYGSLLQSGVPSRFSGSGSGTDFTLTISSLQPEDFATYYCGQGVLWPATFGQGTKVEIKR
notes: dAb, single VK
B23: BMS3h-217-7 (other)
VL: DIQMTQSPSSLSASVGDRVTITCRASHFIGSLLSWYQHKPGKAPKLLITYGSLLQSGVPSRFSGSGSGTDFTLTISSLQPEDFATYYCGQGVLWPATFGQGTKVEIKR
notes: dAb, single VK
B24: BMS3h-217-17 (other)
VL: DIQIIQSPSSLSASVGDRVTITCRASHFIGTLLSWYQQKPGKAPKLLITYGSLLQSGVPSRFSGSGSGTDFTLTISSLQPEDFATYYCGQGVLWPPTFGQGTKVEIKR
notes: dAb, single VK
B25: BMS3h-217-9 (other)
VL: DIQMTQSPSSLSASVGDRVTITCRASHFIGTLLSWYQHKPGKAPKLLITYGSMLQSGVPSRFSGSGSGTDFTLTISSLQPEDFATYYCGQGVLWPATFGQGTKVEIKR
notes: dAb, single VK
B26: BMS3h-217-15 (other)
VL: DIQMTQSPSSLYASVGDRVTITCRVSHFIGTLLSWYQQKPGKAPKLLITYGSLLQSGVPSRFSGSGSGTDFTLSISSLQPEDFATYYCGQGVLWPPTFGQGTKVEIKQ
notes: dAb, single VK
B27: BMS3h-217-2 (other)
VL: DIQMTQSPSSLSASVGDRVTITCRASHFIGTLLSWYQQKPRKAPKLLITYGSLLQSGVPSRFSGSGSGTDFTLTISSLHPEDFATYYCGQGVLWPPTFGQGTKVEIKR
notes: dAb, single VK
B28: BMS3h-193-2511 (other)
VL: DIQMTQSPSSLSASVGDRVTITCRASQNIGTRLNWYQQKPGKAPRLLIYLATRLQSGVPSRFSGSGSGTDFTLTISSLQPEDFATYYCHQYESPPLTFGQGTKVEIKR
notes: domain antibody (dAb): single human V kappa domain
B29: BMS3h-193-2513 (other)
VL: DIQMTQSPSSLSASVGDRVTITCRASEAIGRRLNWYQQKPGKAPRLLIYLATRLQSGVPSRFSGSGSGTDFTLTISSLQPEDFATYYCHQYESPPLTFGQGTKVEIKR
notes: as for B28
B30: BMS3h-193-2514 (other)
VL: DIQMTQSPSSLSASVGDRVTITCRASTSIARRLNWYQQKPGKAPRLLIYLATRLQSGVPSRFSGSGSGTDFTLTISSLQPEDFATYYCHQYESPPLTFGQGTKVEIKR
notes: as for B28
B31: BMS3h-193-2516 (other)
VL: DIQMTQSPSSLSASVGDRVTITCRASQTIERRLNWYQQKPGKAPRLLIYLSSKLQSGVPSRFSGSGSGTDFTLTISSLQPEDFATYYCHQYESPPLTFGQGTKVEIKR
notes: as for B28
B32: BMS3h-193-2515 (other)
VL: DIQMTQSPSSLSASVGDRVTITCRASLNIGRRLNWYQQKPGKAPRLLIYLATRLQSGVPSRFSGSGSGTDFTLTISSLQPEDFATYYCHQYESPPLTFGQGTKVEIKR
notes: as for B28
B33: BMS3h-193-2512 (other)
VL: DIQMTQSPSSLSASVGDRVTITCRASEVIGRRLNWYQQKPGKAPRLLIYLATRLQSGVPSRFSGSGSGTDFTLTISSLQPEDFATYYCHQYESPPLTFGQGTKVEIKR
notes: as for B28

Values joined by “and” are separate entries in the source; they are usually repeats but may differ in a detail not shown here. Equal values may be shown once.

The target in the first assay is T1, human CD40 (BMS, CY24FEB06-01) (human, UniProt P25942 21-193).
T1 construct: Soluble reagent of the bead and ELISA RBA; It is detected with an anti-human IgG (Fc) mAb, so it may be a CD40-Ig fusion
As to the kind of experiment: ELISA RBA, competition with IZ-CD40L.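 Also: Neutravidin-coated 384-well plate, dAb–human CD40 complex bound for 2 h at room temperature, absorbance read at 450 nm after HCl stop.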
T1 sequence (P25942 21-193 limits assumed): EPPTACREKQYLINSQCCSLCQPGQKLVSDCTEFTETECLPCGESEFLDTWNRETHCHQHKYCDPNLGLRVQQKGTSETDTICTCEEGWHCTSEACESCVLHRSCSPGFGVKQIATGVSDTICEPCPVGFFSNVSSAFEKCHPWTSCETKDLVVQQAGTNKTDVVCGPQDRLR
Experimental: Clear walled High Bind, 384-well plates (Corning, UK) were coated with 25 μl of 1 μg/ml Neutravidin in 0.2 M carbonate-bicarbonate buffer, pH 9.4 overnight at 4° C. The following day, assay plates were washed with 0.1% (v/v) Tween PBS buffer, blocked with 1% (w/v) BSA in PBS for 1 hour at room temperature and washed again. […] Following washing of the assay plate, the dAb:human CD40 complex was incubated in the assay plate at room temperature for 2 hours with gentle agitation. […] Absorbance signal was measured using a SpectraMax® M5e plate reader (Molecular Devices) at 450 nm following neutralization with 1M HCl solution.
For the molecule B1, the EC50 came to 5.5 nM. Same read-out and setting: to B2 belongs 6.8 nM. B3: the response was half-maximal at 6.5 nM (EC50). Regarding B4, the EC50 turned out to be 5 nM. In turn, B5 gave a concentration for a half-maximal effect (EC50) of 66 nM.

As for B6, the EC50 worked out at 5.5 nM. B7: the EC50 worked out at 24.5 nM. B8: a half-maximal effect (EC50) was put at 8.9 nM. B9: the EC50 is 5.5 nM and 5.1 nM. B10 returned an EC50 of 6.2 nM. Still for that read-out and setting: to B11 belongs 6.5 nM and 6.2 nM; to B12, 9.7 nM. With B13, the concentration giving a half-maximal response (EC50) stood at 6.5 nM. As to B14, the EC50 came to 11.7 nM. Molecule B15 yielded an EC50 of 24.2 nM. For B16, the EC50 came out at 7 nM.

For the molecule B17, the EC50 amounted to 61 nM. On the same count and under the same terms, to B18 belongs 23 nM; to B19, 9 nM; to B20, 32 nM. B21 gave an EC50 of 16 nM. Molecule B22 yielded an EC50 of 6 nM. Consider B23, for which a half-maximal response (EC50) required 39 nM. On to B24, for which it took 60 nM to reach a half-maximal effect (EC50). Take B25: the EC50 was 53 nM.

Regarding B26, the concentration for a half-maximal effect (EC50) was found to be 21 nM. Consider B27, for which a half-maximal effect (EC50) was put at 78 nM.

A further assay addresses T2, human CD40 (BMS, CY24FEB06-01) (human, UniProt P25942 21-193).
T2 construct: Soluble human CD40 reagent of the ELISA RBA
As to the kind of experiment: ELISA RBA, competition with IZ-CD40L for soluble human CD40.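 Also: Neutravidin-coated 384-well plates, dAb–human CD40 complex incubated 2 h at room temperature, read-out as absorbance at 450 nm.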
T2 sequence (P25942 21-193 limits assumed): as above
In the case of B28, the midpoint of the response, the EC50, lay at 270 nM.

In the case of B29, the EC50 amounted to 130 nM.

B30 came in with an EC50 of 525 nM. B31 registered an EC50 of 100 nM. B32 came in with an EC50 of 100 nM. Molecule B33 showed an EC50 of 600 nM.

A word on the EC50: it is the concentration giving half of the maximal effect. Higher therefore signals a less potent agent.
